The text below walks through data of patent publication US20090111104A1, “Method for Monitoring Hydrolytic Activity” (Fluorotechnics Pty Limited, priority 2005, published 2009).

For experiment [1], the target named is T1, BSA (Bos taurus, UniProt P02769).
T1 construct: purchased Sigma-Aldrich A3059
Kind of experiment: Sub-sampled BSA tryptic digest visualised by SDS-PAGE (Deep Purple stain). The experiment is classed as biochemical, bovine. Here is the method: A.3.4 Visualization of Trypsin Digests in SDS-PAGE • 1 The reduced and denatured BSA sample from 3.2 above was diluted 10-fold in 50 mM bicine buffer (25 μL+225 μL bicine buffer). BSA molar concentration was calculated to be approx. 4 μM. • 2 One hundred microliter of the sample (step 1) was added to a 1.5 mL microtube. Controls included a bicine-based digestion buffer and an undigested BSA sample (no trypsin). • 3 Epicocconone stock solution was diluted 100-fold in 50 mM bicine. One hundred microliter of diluted epicocconone solution was added to each corresponding well. The final concentration was 12 μM. […] At each sampling point, 15 μL of the samples were taken out, immediately mixed with 15 μL of a protein gel loading buffer (2×), denatured for 5 min at 85° C., and stored at −80° C. • 6 The sub-samples collected as described above were run by SDS-PAGE (Nupage, 12% BT gel), and gels were stained with Deep Purple for visualization. • 7 The Deep Purple-stained gels were imaged by Typhoon scanner (Ex:Em=532:560 LP; 440 PMT). • 8 All the gel lanes showing digested (FIG. 12A) and undigested (FIG. 12B) protein samples were equally gated, and the fluorescent intensity was measured by ImageQuant (v 5.2) software.
The results from the subsampled reaction was similarly analysed but without the term associated with degradation of the signal with time as this is not relevant in gels. […]

Experiment [2] concerns the target T1, BSA. Kind of experiment: SDS-PAGE validation of BSA proteolysis in the presence of different fluorophores (Example 7). The experiment is classed as biochemical, bovine. The following applies: after 120 minutes. From the text:
The normalised data were used for Prism analysis for obtaining the rate constants. In each case, the protein with fluorophore (open squares) is fitted to a single phase exponential decay (Y=span*exp(−kX)+plateau) and the value for k used as the fixed value for k1 in a two phase exponential decay (Y=span1*exp(−k1X)+span2*exp(−k2X)+plateau) for the protein plus papain (open circles). Through this method it was possible to measure the rate constants for hydrolysis and predict the time point for complete hydrolysis. […] It can be seen from this figure that the bands associated with the protein have disappeared after 120 minutes and that only a faint band for residual papain or trypsin can be seen. In some cases there are also some larger peptide fragments remaining after digestion that are resistant to further hydrolysis.

T1 sequence (P02769 25-607): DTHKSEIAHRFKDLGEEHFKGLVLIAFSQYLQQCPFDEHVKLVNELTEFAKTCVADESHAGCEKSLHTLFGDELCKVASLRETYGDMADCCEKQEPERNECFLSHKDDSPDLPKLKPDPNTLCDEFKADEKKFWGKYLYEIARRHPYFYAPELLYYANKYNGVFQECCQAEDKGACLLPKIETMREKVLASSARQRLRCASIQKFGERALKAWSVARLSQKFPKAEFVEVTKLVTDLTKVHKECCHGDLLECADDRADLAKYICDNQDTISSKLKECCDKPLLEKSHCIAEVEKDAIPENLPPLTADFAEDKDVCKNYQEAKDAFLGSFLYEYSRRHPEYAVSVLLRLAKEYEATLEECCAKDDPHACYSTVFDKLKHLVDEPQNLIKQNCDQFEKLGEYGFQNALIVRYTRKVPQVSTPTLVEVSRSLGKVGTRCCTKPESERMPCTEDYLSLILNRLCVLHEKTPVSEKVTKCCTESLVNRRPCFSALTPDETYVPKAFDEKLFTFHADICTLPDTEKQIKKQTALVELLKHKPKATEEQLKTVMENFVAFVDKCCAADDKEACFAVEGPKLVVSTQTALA

B1: trypsin: Proteomics grade trypsin protease, Sigma-Aldrich T6567 (protein, UniProt P00761 9-231, looked up)
Trypsin: IVGGYTCAANSIPYQVSLNSGSHFCGGSLINSQWVVSAAHCYKSRIQVRLGEHNIDVLEGNEQFINAAKIITHPNFNGNTLDNDIMLIKLSSPATLNSRVATVSLPRSCAAAGTECLISGWGNTKSSGSSYPSLLQCLKAPVLSDSSCKSSYPGQITGNMICVGFLEGGKDSCQGDSGGPVVCNGQLQGIVSWGYGCAQKNKPGVYTKVCNYVNWIQQTIAAN
As for B1, the “time for digestion to reach completion” value with BSA [1] (SDS-PAGE, bicine and carbonate (NH4HCO3) digestion buffers) lay in the range of 0.5 to 1 h. Also, the “apparent first order rate constant” value in the experiment with BSA [1] (sub-sampled reaction, gel fluorescence intensity, 0-128 min) was found to be 0.3136 min⁻¹. Further, the “digestion of BSA by SDS-PAGE” value in the experiment with BSA [2] is given as “complete digestion”.
